Laboratory results as given in paper PMC10439073.

How the values were obtained:
Assay in all cases: SPR
BAT1706 (human) = target: BAT1706 (human)
EU-bevacizumab (human) = target: EU-bevacizumab (human)
US-bevacizumab (human) = target: US-bevacizumab (human)

Kd (BAT1706 (human)): 769 nM
Kd (EU-bevacizumab (human)): 951 nM
Kd (US-bevacizumab (human)): 983 nM
Substance: FcγRIIIa-158F (from UniProt P08637 17-208) (receptor)
